# Literature values as cited in paper PMC3012698, “Characterization of a Novel Interaction between Bcl-2 Members Diva and Harakiri” (PLoS ONE, 2010).
# Like-named read-outs stand apart in the source and are kept apart here.
# What was measured:
# BFL-1 (Homo sapiens) [1] = target: BFL-1 (Homo sapiens) (UniProt Q16548)
# Mcl-1 [2] = target: Mcl-1 (UniProt Q07820)
# Bcl-2 (Homo sapiens) [3] = target: Bcl-2 (Homo sapiens) (UniProt P10415)
# Bcl-w (Homo sapiens) = Bcl-w (Homo sapiens) (UniProt Q92843)
# BFL-1 (Homo sapiens) [4] = target: BFL-1 (Homo sapiens) (UniProt Q16548); remark: listed apart in the source
# Mcl-1 [5] = target: Mcl-1 (UniProt Q07820); remark: listed apart in the source
# Bcl-2 (Homo sapiens) [6] = target: Bcl-2 (Homo sapiens) (UniProt P10415); remark: listed apart in the source
# Chain of Mcl-1 (Q07820 whole entry): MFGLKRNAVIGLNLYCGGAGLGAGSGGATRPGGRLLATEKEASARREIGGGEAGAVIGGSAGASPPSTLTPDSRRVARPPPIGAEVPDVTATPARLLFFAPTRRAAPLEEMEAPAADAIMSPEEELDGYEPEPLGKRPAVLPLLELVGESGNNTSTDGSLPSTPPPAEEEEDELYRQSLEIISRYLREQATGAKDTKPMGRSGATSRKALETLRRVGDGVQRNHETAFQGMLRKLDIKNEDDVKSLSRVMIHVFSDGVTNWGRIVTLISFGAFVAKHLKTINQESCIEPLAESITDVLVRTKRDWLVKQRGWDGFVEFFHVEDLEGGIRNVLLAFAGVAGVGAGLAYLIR
# Chain of Bik BH3 (Q13323 51-75): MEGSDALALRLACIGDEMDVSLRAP
# Chain of Bcl-2 (Homo sapiens) (P10415 whole entry): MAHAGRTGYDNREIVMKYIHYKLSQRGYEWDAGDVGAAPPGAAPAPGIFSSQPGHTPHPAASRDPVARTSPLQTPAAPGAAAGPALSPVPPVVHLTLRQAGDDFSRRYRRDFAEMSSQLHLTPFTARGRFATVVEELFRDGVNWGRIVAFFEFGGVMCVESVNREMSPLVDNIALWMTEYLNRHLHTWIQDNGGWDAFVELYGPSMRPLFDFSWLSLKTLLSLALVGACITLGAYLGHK
# Chain of BFL-1 (Homo sapiens) (Q16548 whole entry): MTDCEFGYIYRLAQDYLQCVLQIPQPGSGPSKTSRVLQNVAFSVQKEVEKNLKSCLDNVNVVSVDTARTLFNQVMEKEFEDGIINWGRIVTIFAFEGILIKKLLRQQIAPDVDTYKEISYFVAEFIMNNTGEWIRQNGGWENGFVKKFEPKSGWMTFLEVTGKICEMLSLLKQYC
# Chain of Noxa BH3 (Q13794 19-43): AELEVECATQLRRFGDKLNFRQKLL
# Chain of Bcl-w (Homo sapiens) (Q92843 2-193): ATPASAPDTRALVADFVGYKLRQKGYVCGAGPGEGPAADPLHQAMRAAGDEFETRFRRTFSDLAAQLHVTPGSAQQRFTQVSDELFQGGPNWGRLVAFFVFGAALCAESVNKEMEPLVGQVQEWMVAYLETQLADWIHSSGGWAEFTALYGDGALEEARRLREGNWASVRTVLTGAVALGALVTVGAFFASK
substance,measurement,setting,value
Bik BH3 (from UniProt Q13323),Kd,BFL-1 (Homo sapiens) [1],> 2.5 µM
same,Kd,Mcl-1 [2],0.109 µM
Harakiri BH3 (from UniProt O00198),Kd,Bcl-2 (Homo sapiens) [3],> 2.5 µM
same,Kd,Bcl-w (Homo sapiens),> 2.5 µM
same,Kd,BFL-1 (Homo sapiens) [4],> 2.5 µM
Noxa BH3 (from UniProt Q13794),Kd,Mcl-1 [5],0.025 µM
same,Kd,Bcl-2 (Homo sapiens) [6],> 2.5 µM
